Experimental data reported in the DeepSol protein solubility set.

assay: soluble on expression in E. coli; label from the status in PepcDB or PDB records

Sequence	soluble on expression in E. coli
MAHHHHHHMNQDLDKELREALQQDKYDLQLFLRFLKSYVVSGSQPEKQLLLGILLQALPRFHTSDFSACISLISSHVQDASYIEKDIILIYDLENYLSSGNFPQFWQVWRESEGTLPARPSFEPNMRAAILTVIGCTLGHIQTKDLSVYLGLKSGEKLEEVLREAARIAGDAVQLVGADEQAVVFQKSVFNAPESDSNQELKRFSDTVTIVSL	soluble
MGSDKIHHHHHHMVRLWLMYKNKEEQANMQVEKDVIYDSAYNLAADLYVPDEANGGAIVYAHGGGWFRGDKENESDLGKYFADAGYLFTIPNFRLAPKYLYPTAQNDFDHFINWLLASPYDFDRERLGLLGASSGGTMVLQNSLASGYPLVAWSPVVDFANWVQKNQMVKASVDGKKELGLTEIHEIHDSFYKYFVQTYLGGLDPRLLTAVNPTNHLTDQLGPALLFNSADELMPLPSALHFLQQAAMFGRDIGLHVVPGTGHARDYTSFALPETKRFFDHHLFTTVEDKTLNKATD	not soluble
MGTFREEGSVSSGTKQEFHTGKLVTTKGDKELLIDNEKVTSGHTTTTRRSCSKVITKTVTNADGRTETTKEVVKSEDGSDCGDADFDWHHTFPSRGNLDDFFHRDKDDFFTRSSHEFDGRTGLAPEFAALGESGSSSSKTSTHSKQFVSSSTTVNRGGSAIESKHF	soluble
MSLSNYSTGELAKLCNVTTRTIQYYDRKGILKPQGFTEGKRRVYTEQQRQTLELILLLKDLGCALSDIDMLLKGEGTLKTLNTLLTMKQQEINQQVKQQQAVLNKIKNVQYYVNEGHHHHHH	not soluble
MYAMKEEDCLQTFHNLQDYQDQFHLHHHPQILPWSSTSLPSFDPLHFPSNPTRYSDPVHYFNRRASSSSSSFDYNDGFVSPPPSMDHPQNHLRILSEALGPIMRRGSSFGFDGEIMGKLSAQEVMDAKALAASKSHSEAERRRRERINTHLAKLRSILPNTTKTDKASLLAEVIQHMKELKRQTSQITDTYQVPTECDDLTVDSSYNDEEGNLVIRASFCCQDRTDLMHDVINALKSLRLRTLKAEIATVGGRVKNILFLSREYDDEEDHDSYRRNFDGDDVEDYDEERMMNNRVSSIEEALKAVIEKCVHNNDESNDNNNLEKSSSGGIKRQRTSKMVNRCYN	soluble
MGGSHHHHHHGMASMTGGQQMGRTLYDDDDKDRWGSKIVVVGANHAGTACIKTMLTNYGDANEIVVFDQNSNISFLGSGMALWIGEQIAGPEGLFYSDKEELESLGAKVYMESPVQSIDYDAKTVTALVDGKNHVETYDKLIFATGSQPILPPIKGAEIKEGSLEFEATLENLQFVKLYQNSADVIAKLENKDIKRVAVVGAGYIGVELAEAFQRKGKEVVLIDVVDTCLAGYYDRDLTDLMAKNMEEHGIQLAFGETVKEVAGNGKVEKIITDKNEYDVDMVILAVGFRPNTTLGNGKIDLFRNGAFLVNKRQETSIPGVYAIGDCATIYDNATRDTNYIALASNAVRTGIVAAHNACGTDLEGIGVQGSNGISIYGLHMVSTGLTLEKAKRLGFDAAVTEYTDNQKPEFIEHGNFPVTIKIVYDKDSRRILGAQMAAREDVSMGIHMFSLAIQEGVTIEKLALTDIFFLPHFNKPYNYITMAALGAKD	soluble
GGSGERKISRIHLVSEPSITHFLQVSWEKTLESGFVITLTDGHSAWTGTVSESEISQEADDMAMEKGKYVGELRKALLSGAGPADVYTFNFSKESCYFFFEKNLKDVSFRLGSFNLEKVENPAEVIRELICYCLDTTAKNEKSIDDLEEKVAHAKEENLNMHQMLDQTLLELNNM	soluble
MSKIAIIGATGRAGSQLLEEALRRGHSVTAIARNTAKIGSRAGVVSRDVDVADSAALQAAVAGHDVVISAAHFSSIAANAIIDPVKKAGVKRLLVVGGAGSLLLPGGSKVIDSPGFPEEYKAEASAGGVYLETLRKEQDLDWTFLSPSAEFVEGERTGHFRLGQDDLLVSAEGRSWITFADYAIAMLDEVEKPAHSRQRFTVGYLEHHHHHH	not soluble
MTEPKEERRERRMSSPIMPENMSDFDLIVGEIEAENGAEGSFQRAAECFKLIEDRVSEDPDLSEIMENIRMNQGCEVSGMSTGLSSTATTVSSKMASQWISHMKRSFKRRAICLSEEQQSAMRKMVTEELYTQHGPADLAVRDILLLYSRGLEAHHDGRYREMFERLRPCIPYFNTNVLVWIRISEALIYEYYEETWEFNDIYDRLFEKQPHHYMPSVRRRCNEMRPRHPDMTLRFAETATLMCFALAKQSSREPVHYAAAALHGFMLLKLRKYSEAIEAVNFAVERYDRAGEWQDDLAILLTYKAEGMIGIGRYNRAIEYALRVMNAAKCARARQRATMLVVMAYMRKRNYLKAHEYVIKLLKEGKLDEVMLENVALLGLNLAHLMGNMKLFKRFESMLQRIVY	not soluble
MWTVTKIRADYEGWWLFSDWPENIVEKYQYQDFDDMFKHYQQLINQCKVQFDNYVTGKYNIYAFYNNCDMNYCEDCEEDLQIFYSFIVLQNNEVYYKLPIIDLEHHHHHH	soluble
MSLDAVDGVRLEEGDAIDWIVFDRPQAANSFSATLLEQFSALVKDRQANGAPVLGIRGSGRGFSSGMDLGEYNATSGPTSDVLRLSSYVERWLDLWRHPKPVIVAVHGYCIGVAAQLASFADILVVAEDAMISEPTIPIGGGFIAPTWVSHVGSRHAKEFAFLPGNRIDGRMAAAWGWANCAVPASEVIACCESLAQRMKLMPPAVLAMKKRSINRAMEAAGFHAAASAIAESDALLHLEPEVTAIRNRLRTEDLKAVVGSYAGESSQEIFQREGHHHHHH	soluble
SHSEAEESKEVAADVFNSKNLAVQAQKKILGKMVSKSIATTLIDDTSSEVLDELYRVTREYTQNKKEAEKIIKNLIKTVIKLAILYRNNQFNQDELALMEKFKKKVHQLAMTVVSFHQVDYTFDRNVLSRLLNECREMLHQIIQRHLTAKSHGRVNNVFDHFSDCEFLAALYNPFGNFKPHLQKLCDGINKMLDEENI	soluble
GTKASKSGVPVTQTQTAGADTTAEKCKGKGEKDCKSPDCKWEGGTCKD	soluble
MQYSMGIDAGGTYTDSIIIRDSDGKVMDSNKALTTYPDLLAGIKNSIDGLDEQYLKDVKMVSVSTTLATNTILEKNGYPVGLILVGDYEVPERMQAEYYTVVKGGHDHHGAELTSLDMEAVEAFVNKVKDRVSAFAVSSYFSIRNPAHELAIKARLKELGFSVVCGHELSLDLGAYERGITAYLNAQLIPIASQFILSIREEIRRRGMDARLLMLKCDGSVVGINEALEKPIESIFSGPAASLVGASHLSGLETCAVIDVGGTSTDVSMLENGLPELCSEGAVVGGWQTKVKAIRMETSAMGGDSHVWVKNMKINIGPRRVIPLCVAAVKYPGFLEILKKGRIPGTMHLEENIQPTKFFIRTGLEASNLGSYEKELFDRIGDTPASLNDIFWETQKTLSPGLLDSLLRKRLIQAIGFTPTDALHVLGEYRGWNTEASIAGAKLLERYTHKDYIESARALEHHHHHH	not soluble
MKFSVLTLFPQLVWPYFEDSILKRALEKNLFELEVLNLRDFSANKYQKADHTLIGGGAGQILDPEMVENALHSVKNPKHTIFLSAVGKPFKQTDAMRLAQKKHVVLVCGRYEGFDERSIELGADEVFCIGDFILTGGELGALCLIDSIARHIQGVLGNAQSLENESFENHYLEAPNFANAVFKSKEINKIPAPLEYSKGNHAKIKQLKLDLSKLRTKFYRLDLFKQHKSLEHHHHHH	not soluble
MGSDKIHHHHHHMKGKHKVIVSTKRLKYEFELRRNLTIIQGDSATGKTTLVDMIRDFVNNPTGTPVEVICDKKCHVVEGSLWKEQLSGISDCIVFIDEGNEFITTVDFADKIQKTDNYYVIVTREALPALPYSVEEIYGIRTSGRYGTLKQSYHEFYRIYGTDTYEDKVSPEIIITEDSNSGYQFFEHVCIENGLKCESMNGKSNVFHYLNKHKGEKILVIADGAAFGSEIDRVLQVIHGRKNVALYLPESFEWMIMDADILKNNTVRSILSNPSEYVESKLYFSWERFFTAILIEQTKDTYLAYAKRKLNPAYLSGAIKESILRKMNIIDLNKKDE	not soluble
MVGAHQMKSEEQANMQLQQQAVLGLNWMQDSGEYKALAYQAYNAAKVAFDHAKVAKGKKKAVVADLDETMLDNSPYAGWQVQNNKPFDGKDWTRWVDARQSRAVPGAVEFNNYVNSHKGKVFYVTNRKDSSEKAGTIDDMKRLGFNGVEESAFYLKKDKSAKAARFAEIEKQGYEIVLYVGDNLDDFGNTVYGKLNADRRAFVDQNQGKFGKTFIMLPNANYGGWEGGLAEGYFKKDTQGQIKARLDAVQAWDGK	soluble
GMARLKNLPQERPLPLASLIEARENQVLSMALAQSDRVQISLFSFADGESVSEEEYFGDTLYLILQGEAVITFDDQKIDLVPEDVLMVPAHKIHAIAGKGRFKMLQITLIDEER	soluble
MGSDKIHHHHHHMFRPQDDFTYLMPVHFGGGKFDPETLVTQKATALSLSFETERDLLENYIPEGFELLAPEVQVAFNKFTEINWLHGGQYNLINVAAPVRFHGKKDELDGAYTLVVWENKTAPILGGREQTGIPKIYADIEDLHIVRPHFATTVSYEGNTFLNMDFEATGSITGRDLDALKSQFLTMNTLGWRYIPKVGAPGAELSQFVLYPQGMEVETAEVGKGSLKWTELTPMQSPAQYYIVNSLASLPIKRVTQAVLVEGRAILRAMGARVIE	not soluble
NKSDMNHFMQVLRYLDPIHYLKATNDNGFPMSRMYSNQTVTIGGTITQPLPFKPDGENNVKLQRVVAKLDVNIVEGVENLQKIELCNANVHYRLVPNQSEPIQFYGPVELRRVGTTNQWLGYMPEAIVESTKWWGNTGNAENKPINFFRLTTRGGLVYDVPIITHEGAIPGGQYLPFAKGLLADKPSYTVYRNRHYIYRIKTLPDKIEVKYSICDWNIVTNDTYMGYGYNVGVDEQGNVTITNTMQNCDPHVVRLVAKNGAYFGSQPTDTSVEFAELANGASQTFKVNKDAVAVGSAYLEVYYNPDPNATGVVPDKVFIKK	not soluble
MGFKCGIVGLPNVGKSTLFNALTKAGIEAANFPFCTIEPNTGVVPMPDPRLDQLAEIVKPQRTLPTTMEFVDIAGLVKGASKGEGLGNQFLTNIRETEAIGHVVRCFENDNIIHVSGKVNPADDIEVINTELALADLDTCERAIHRVQKKAKGGDKDAKAELAVLEKCLPQLENAGMLRALDLSAEEKAAIRYLSFLTLKPTMYIANVNEDGFENNPYLDQVREIAAKEGSVVVPVCAAVEADIAELDDEERDEFMQELGLEEPGLNRVIRAGYKLLNLQTYFTAGVKEVRAWTIPVGATAPQAAGKIHTDFEKGFIRAQTISFEDFITYKGEQGAKEAGKMRAEGKDYIVKDGDVMNFLFNV	soluble
SSPATPVPPDSILESPFEEMALVRGGWLWRQSSILRRWKRNWFALWLDGTLGYYHDETAQDEEDRVVIHFNVRDIKVGQECQDVQPPEGRSRDGLLTVNLREGSRLHLCAETRDDAIAWKTALMEANSTPAPAGATVPPRSRRVCPKVRCTTLSWNPCKVERRIWVRVYSPYQDYYEVVPPNAHEATYVRSYYGPPYAGPGVTHVIVREDPCYSSGAPLAMGMLAGAATGAALGSLMWSPCWF	not soluble
MVEVRYLGHSAVLLTDGKTRIVIDPFLTGNPMAALGVGEVQADLILVTHAHGDHFGDSVALSKKGGVVVSTFEIATYAEKHGAKSVPMNLGGTYRFEGGWLKWVPAWHSSSFPDGTYGGMPMGVVVELGGKRIYHAGDTALFSDMRLIGEMGLDLALLPIGDHFTMGPEDALKALELLRPKKVVPIHYNTFPPIRQDGEAFAQRAREKGVEGHALKPGEVLRLD	soluble
